According to patent US20200079833A1 (AstraZeneca / MedImmune, published 2020):
Starred links: 1 amine or outer side, 2 acyl side, 3 side chain; linkers in the order of their positions; H or OH if unused. Non-standard residues stand in square brackets, D forms with d. Groups on a side chain read outwards from the residue. Primed or numbered codes have the meaning given here. No end group written: not given here. *: point of attachment. γGlu = O=C(O)[C@H](CCC(=O)[*:2])N[*:1]; Stearoyl = CCCCCCCCCCCCCCCCCC(=O)*; αMeF = C[C@](N)(Cc1ccccc1)C(=O)O; αMeK = C[C@](N)(CCCCN)C(=O)O; αMeS = C[C@](N)(CO)C(=O)O; PEG2′ = not defined here; Aib = CC(C)(N)C(=O)O

T1: glucose-dependent insulinotropic peptide (gastric inhibitory polypeptide) receptor (human, UniProt P48546 22-466)
T1 sequence (looked up): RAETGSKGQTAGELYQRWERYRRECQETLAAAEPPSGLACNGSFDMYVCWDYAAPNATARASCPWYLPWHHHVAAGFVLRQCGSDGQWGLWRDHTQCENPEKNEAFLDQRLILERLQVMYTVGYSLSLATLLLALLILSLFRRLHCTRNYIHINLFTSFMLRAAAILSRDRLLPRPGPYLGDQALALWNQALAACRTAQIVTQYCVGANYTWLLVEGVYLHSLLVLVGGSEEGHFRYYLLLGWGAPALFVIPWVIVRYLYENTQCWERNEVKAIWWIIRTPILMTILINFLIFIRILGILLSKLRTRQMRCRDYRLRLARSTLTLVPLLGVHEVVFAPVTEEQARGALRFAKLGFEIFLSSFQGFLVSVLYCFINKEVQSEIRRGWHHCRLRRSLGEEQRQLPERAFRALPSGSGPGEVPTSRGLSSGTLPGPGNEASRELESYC

B1: SEQ ID NO 56 (peptide)
peptide: H[Aib]EGS[αMeF]TSDV[αMeS]S[αMeF]LEGEAAK([PEG2′-PEG2′-PEG2′-Stearoyl])E[αMeF]IA[αMeF]VVKGG-NH2
B2: SEQ ID NO 50 (peptide)
peptide: H[Aib]EGS[αMeF]TSDV[αMeS]S[αMeF]LEGEAAK([PEG2′-PEG2′-γGlu-Stearoyl])E[αMeF]IA[αMeF]VVKGG-NH2
B3: SEQ ID NO 8 (peptide)
peptide: H[Aib]EGS[αMeF]SSDVSS[αMeF]LEGEAA[αMeK]E[αMeF]IA[αMeF]VV[αMeK]GG-NH2
modifications: N-terminus assumed
SMILES: CC[C@H](C)[C@H](NC(=O)[C@](C)(Cc1ccccc1)NC(=O)[C@H](CCC(=O)O)NC(=O)[C@](C)(CCCCN)NC(=O)[C@H](C)NC(=O)[C@H](C)NC(=O)[C@H](CCC(=O)O)NC(=O)CNC(=O)[C@H](CCC(=O)O)NC(=O)[C@H](CC(C)C)NC(=O)[C@](C)(Cc1ccccc1)NC(=O)[C@H](CO)NC(=O)[C@H](CO)NC(=O)[C@@H](NC(=O)[C@H](CC(=O)O)NC(=O)[C@H](CO)NC(=O)[C@H](CO)NC(=O)[C@](C)(Cc1ccccc1)NC(=O)[C@H](CO)NC(=O)CNC(=O)[C@H](CCC(=O)O)NC(=O)C(C)(C)NC(=O)[C@@H](N)Cc1c[nH]cn1)C(C)C)C(=O)N[C@@H](C)C(=O)N[C@@](C)(Cc1ccccc1)C(=O)N[C@H](C(=O)N[C@H](C(=O)N[C@@](C)(CCCCN)C(=O)NCC(=O)NCC(N)=O)C(C)C)C(C)C
B4: SEQ ID NO 57 (peptide)
peptide: H[Aib]EGS[αMeF]TSDVSK([PEG2′-PEG2′-γGlu-Stearoyl])YLEGEAAKE[αMeF]IA[αMeF]VVEGG-NH2
B5: SEQ ID NO 54 (peptide)
peptide: H[Aib]EGS[αMeF]TSDV[αMeS]S[αMeF]LEGEAAK([PEG2′-PEG2′-PEG2′-Stearoyl])EFIA[αMeF]VV[αMeK]GG-NH2
B6: SEQ ID NO 63 (peptide)
peptide: H[Aib]EGS[αMeF]TSDVSK([PEG2′-PEG2′-PEG2′-Stearoyl])YLEGEAA[Aib]E[αMeF]IA[αMeF]VVEGG-NH2
B7: SEQ ID NO 52 (peptide)
peptide: H[Aib]EGS[αMeF]TSDVSS[αMeF]LEGEAAK([PEG2′-PEG2′-PEG2′-Stearoyl])E[αMeF]IA[αMeF]VV[αMeK]GG-NH2
B8: SEQ ID NO 51 (peptide)
peptide: H[Aib]EGSFTSDV[αMeS]S[αMeF]LEGEAAK([PEG2′-PEG2′-PEG2′-Stearoyl])E[αMeF]IA[αMeF]VV[αMeK]GG-NH2
B9: SEQ ID NO 61 (peptide)
peptide: H[Aib]EGS[αMeF]TSDVSK([PEG2′-PEG2′-PEG2′-Stearoyl])YLEGEAAKE[αMeF]IA[αMeF]VVEGG-NH2
B10: SEQ ID NO 53 (peptide)
peptide: H[Aib]EGS[αMeF]TSDV[αMeS]SYLEGEAAK([PEG2′-PEG2′-PEG2′-Stearoyl])E[αMeF]IA[αMeF]VV[αMeK]GG-NH2
B11: SEQ ID NO 62 (peptide)
peptide: H[Aib]EGS[αMeF]TSDVSK([PEG2′-PEG2′-PEG2′-Stearoyl])YLEGEAAEE[αMeF]IA[αMeF]VVEGG-NH2
B12: SEQ ID NO 59 (peptide)
peptide: H[Aib]EGS[αMeF]TSDVSK([PEG2′-PEG2′-γGlu-Stearoyl])YLEGEAA[Aib]E[αMeF]IA[αMeF]VVEGG-NH2
B13: SEQ ID NO 55 (peptide)
peptide: H[Aib]EGS[αMeF]TSDV[αMeS]S[αMeF]LEGEAAK([PEG2′-PEG2′-PEG2′-Stearoyl])E[αMeF]IAWVV[αMeK]GG-NH2
B14: SEQ ID NO 58 (peptide)
peptide: H[Aib]EGS[αMeF]TSDVSK([PEG2′-PEG2′-γGlu-Stearoyl])YLEGEAAEE[αMeF]IA[αMeF]VVEGG-NH2
B15: SEQ ID NO 60 (peptide)
peptide: H[Aib]EGS[αMeF]TSDVSK([PEG2′-PEG2′-γGlu-Stearoyl])YLEGEAA[αMeK]E[αMeF]IA[αMeF]VVEGG-NH2

Target: T1, glucose-dependent insulinotropic …
Test: cell-based or functional assay

Binder	Primary assay EC50 (cAMP), n1 [nM]	Primary assay EC50 (cAMP), n2 [nM]
B1	26	26
B2	26	26
B3	23	23
B4	25	25
B5	26	26
B6	25.7	25.7
B7	26	26
B8	26	26
B9	25	25
B10	26	26
B11	25	25
B12	25.6	25.6
B13	25	25
B14	25	25
B15	25	25

Target: glucagon receptor (human, UniProt P47871 26-477)
Sequence (P47871 26-477): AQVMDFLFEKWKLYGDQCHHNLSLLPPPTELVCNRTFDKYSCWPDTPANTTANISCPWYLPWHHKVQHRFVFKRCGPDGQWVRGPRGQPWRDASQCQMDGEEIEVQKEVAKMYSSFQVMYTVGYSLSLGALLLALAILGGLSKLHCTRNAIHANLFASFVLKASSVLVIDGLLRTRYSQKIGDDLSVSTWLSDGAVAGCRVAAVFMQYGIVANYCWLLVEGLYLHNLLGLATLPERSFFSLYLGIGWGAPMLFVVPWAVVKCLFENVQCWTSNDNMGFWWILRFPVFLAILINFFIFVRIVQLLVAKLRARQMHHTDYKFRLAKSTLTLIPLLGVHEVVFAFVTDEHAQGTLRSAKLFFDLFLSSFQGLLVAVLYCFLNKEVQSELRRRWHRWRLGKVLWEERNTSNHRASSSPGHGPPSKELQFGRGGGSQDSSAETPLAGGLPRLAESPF
Test: cell-based or functional assay

Binder	Primary assay EC50 (cAMP), n1 [nM]	Primary assay EC50 (cAMP), n2 [nM]
B1	26	26
B2	26	26
B3	7.8	12
B4	25	25
B5	26	26
B6	25.7	25.7
B7	26	26
B8	26	26
B9	25	25
B10	26	26
B11	25	25
B12	25.6	25.6
B13	25	25
B14	25	25
B15	25	25

Target: GLP-1 receptor (human, UniProt P43220 24-463)
Test: cell-based or functional assay

Binder	Primary assay EC50 (cAMP), Mean pM GLP-1R [pM]	Primary assay EC50 (cAMP), n1 [nM]	Primary assay EC50 (cAMP), n2 [nM]
B1	3.2	0.0029	0.0035
B2	216	0.17	0.26
B3	88	0.071	0.11
B4	153	0.14	0.17
B5	0.9	0.00079	0.00093
B6	2.9	0.00321	0.00255
B7	2	0.0015	0.0025
B8	2.1	0.0017	0.0024
B9	0.9	0.00085	0.00091
B10	0.9	0.00083	0.0009
B11	1.9	0.002	0.0018
B12	211	0.243	0.179
B13	1.8	0.0014	0.0023
B14	4720	5.2	4.3
B15	49	0.049	0.05
